To fix the notation:
B1: Serine/threonine-protein kinase STK11 (Homo sapiens), Q15831 (parent)
chain: MEVVDPQQLGMFTEGELMSVGMDTFIHRIDSTEVIYQPRRKRAKLIGKYLMGDLLGEGSYGKVKEVLDSETLCRRAVKILKKKKLRRIPNGEANVKKEIQLLRRLRHKNVIQLVDVLYNEEKQKMYMVMEYCVCGMQEMLDSVPEKRFPVCQAHGYFCQLIDGLEYLHSQGIVHKDIKPGNLLLTTGGTLKISDLGVAEALHPFAADDTCRTSQGSPAFQPPEIANGLDTFSGFKVDIWSAGVTLYNITTGLYPFEGDNIYKLFENIGKGSYAIPGDCGPPLSDLLKGMLEYEPAKRFSIRQIRQHSWFRKKHPPAEAPVPIPPSPDTKDRWRSMTVVPYLEDLHGADEDEDLFDIEDDIIYTQDFTVPGQVPEEEASHNGQRRGLPKAVCMNGTEAAQLSTKSRAEGRAPNPARKACSASSKIRRLSACKQQ
B2: Serine/threonine-protein kinase STK11 (Homo sapiens), Q15831 (parent)
chain: B1 chain
partner: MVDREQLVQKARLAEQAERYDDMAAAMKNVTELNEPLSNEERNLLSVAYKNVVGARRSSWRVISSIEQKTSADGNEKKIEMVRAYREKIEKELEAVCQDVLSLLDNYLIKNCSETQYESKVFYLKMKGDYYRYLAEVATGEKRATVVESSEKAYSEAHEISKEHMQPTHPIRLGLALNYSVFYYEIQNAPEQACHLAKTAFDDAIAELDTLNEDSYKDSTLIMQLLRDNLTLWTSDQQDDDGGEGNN
B3: Serine/threonine-protein kinase STK11 (Homo sapiens), Q15831 (parent)
chain: B1 chain
partner: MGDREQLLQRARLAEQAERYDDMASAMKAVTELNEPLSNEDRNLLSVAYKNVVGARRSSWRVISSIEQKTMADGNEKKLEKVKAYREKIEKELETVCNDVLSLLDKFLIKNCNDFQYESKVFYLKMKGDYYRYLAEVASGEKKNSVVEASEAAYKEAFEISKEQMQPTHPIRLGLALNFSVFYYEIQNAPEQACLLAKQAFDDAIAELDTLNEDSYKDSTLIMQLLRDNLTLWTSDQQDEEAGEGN
B4: 14-3-3 protein zeta/delta (Homo sapiens), P63104 (parent)
chain: MDKNELVQKAKLAEQAERYDDMAACMKSVTEQGAELSNEERNLLSVAYKNVVGARRSSWRVVSSIEQKTEGAEKKQQMAREYREKIETELRDICNDVLSLLEKFLIPNASQAESKVFYLKMKGDYYRYLAEVAAGDDKKGIVDQSQQAYQEAFEISKKEMQPTHPIRLGLALNFSVFYYEILNSPEKACSLAKTAFDEAIAELDTLSEESYKDSTLIMQLLRDNLTLWTSDTQGDEAEAGEGGEN
partner: B1 chain

In one experiment the parent is B1. The conditions noted are these: with 1433z_human YWHAZ.
As for T336A, the “effect of a mutation on the interaction” value was “disrupting interaction”.

In another experiment the parent is B2. Particulars: with 1433g_human YWHAG.
As for T336A, the “effect of a mutation on the interaction” value is recorded as “disrupting interaction”.

Variants of B3 are the subject of a further experiment. Particulars: with 1433f_human YWHAH.
As to T336A, the “effect of a mutation on the interaction” value was “disrupting interaction”.

In another experiment the parent is B4. The conditions noted are these: with stk11_human STK11, Q15831.
As to K49E, the “effect of a mutation on the interaction” value was “disrupting interaction”.

For the origin of these results see IntAct's records for PubMed 22575644.
